These results are taken from patent US20230213524A1 (published 2023).

The Kd is the constant that tells how readily two partners part at equilibrium. Read a high Kd as lower affinity.

One test deals with T1, FOLR2 (UniProt P14207 17-230, limits assumed).
T1 construct: also called folate receptor 2
The test is described as follows: commercially available ELISA kit. The text has this: (§1) It is important that the assay detect only FOLR1, and not FOLR2 or especially FOLR3 (commonly found as a shed protein in human plasma), since Mov19 is specific for only FOLR1. To determine this, the top four clones were screened by commercially available ELISA kits (FIGS. 7A-B).
(An ELISA detects its analyte on a solid surface through an enzyme-linked reagent.)

Another test concerns the target T2, FOLR3 (UniProt P41439 23-245, limits assumed).
T2 construct: also called folate receptor 3
The test can be described thus: commercially available ELISA kit.
From the text: as §1

Test [1] deals with human folate receptor 1 (FOLR1) on cells (human) (UniProt P15328). The test is described as follows: laser scanning cytometry on KB cells pre-treated with M9346A or vehicle, then stained with commercial FRA.
Test [2] has as its target T3, human folate receptor 1 (FOLR1) on cells (human, UniProt P15328 25-234).
T3 construct: On the cell surface: 300-19 cells transfected with human FOLR1 (NCBI NP_057937), or endogenous on KB, T47D and OVCAR3 cells; also called huFOLR1; folate receptor alpha
The test is described as follows: flow cytometry on T47D cells and ELISA (binding affinity 'by both methods'). On the procedure: To assure that materials were continuously performing as expected, all antibodies were screened for binding by both ELISA and flow cytometry methods known in the art. Flow cytometry was performed using FOLR1 expressing human T47D cells cultured using in-vitro cell culture techniques known in the art. The antibodies were bound to these cells and detected indirectly using a goat anti-murine Alexa-fluor 488 detection antibody on a FACScalibur machine (FIGS. 6A-B).
Background: A flow cytometer gives signals particle by particle.

T3 sequence (P15328 25-234 limits assumed): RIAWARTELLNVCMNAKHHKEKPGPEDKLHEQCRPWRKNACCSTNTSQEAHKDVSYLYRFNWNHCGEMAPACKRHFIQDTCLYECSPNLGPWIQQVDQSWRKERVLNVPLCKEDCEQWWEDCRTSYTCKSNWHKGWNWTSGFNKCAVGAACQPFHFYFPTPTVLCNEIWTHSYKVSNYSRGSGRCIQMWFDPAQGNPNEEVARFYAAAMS
T1 sequence (P14207 17-230 limits assumed): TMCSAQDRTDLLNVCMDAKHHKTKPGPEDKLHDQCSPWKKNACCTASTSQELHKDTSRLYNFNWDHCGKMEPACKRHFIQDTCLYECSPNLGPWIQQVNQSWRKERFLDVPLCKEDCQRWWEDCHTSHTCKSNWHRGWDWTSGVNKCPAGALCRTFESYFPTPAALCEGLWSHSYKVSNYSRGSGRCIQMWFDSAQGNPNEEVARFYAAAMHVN
T2 sequence (P41439 23-245 limits assumed): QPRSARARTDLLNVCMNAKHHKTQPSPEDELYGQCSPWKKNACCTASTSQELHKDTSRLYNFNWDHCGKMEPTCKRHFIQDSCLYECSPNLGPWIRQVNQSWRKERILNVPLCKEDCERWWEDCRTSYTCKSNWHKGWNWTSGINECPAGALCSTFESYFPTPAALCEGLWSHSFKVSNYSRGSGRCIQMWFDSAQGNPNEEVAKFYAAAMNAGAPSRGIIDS
Sequence of human folate receptor 1 (FOLR1) on cells (human) (P15328 25-234 limits assumed): as the sequence (P15328 25-234 limits assumed) above

B1: huMov19 (M9346A) (antibody, V domains shown)
VH: QVQLVQSGAEVVKPGASVKISCKASGYTFTGYFMNWVKQSPGQSLEWIGRIHPYDGDTFYNQKFQGKATLTVDKSSNTAHMELLSLTSEDFAVYYCTRYDGSRAMDYWGQGTTVTVSS
VL: DIVLTQSPLSLAVSLGQPAIISCKASQSVSFAGTSLMHWYHQKPGQQPRLLIYRASNLEAGVPDRFSGSGSKTDFTLTISPVEAEDAATYYCQQSREYPYTFGGGTKLEIKR
notes: also called IMGN853 antibody; antibody component of IMGN853
For B1, the binding result with FOLR2 and with FOLR3 was “no binding” each time. For the same molecule, in test [1], the drop in FRA signal was 66%.

B2: muFR1-13 (antibody, mouse IgG2b, kappa, V domains shown)
VH: QVQLKESGPDLVAPSQSLSITCTVSGFSLSRYSVHWIRQPPGKGLEWLGMIWSGGNTDYNSVFKSRLNITKDNSKSQVFLKMNSLQTDDTAIYYCATFDGKVSWFAYWGQGTLVTVSA
VL: SIVMTQTPKFLLVSTGDRFTITCKASQSVSNDVLWYQQKPGQSPKLLIYYAYNRYSGVPDRFTGSGYGTDFTFTITTVQSEDLAVYFCQQDHSSPFTFGSGTKLEIKR
notes: Murine monoclonal purified from hybridoma supernatant; Used biotinylated as the detection antibody in the ELISAs and unlabeled in the cytometry assays; also called muFR1-13b; Biotinylated FR1-13
Regarding B2, the Kd in test [2] was 1 to 3 nM.

B3: muFR1-9 (antibody, mouse IgG1, kappa, V domains shown)
VH: QVQLVESGGGLVQPGGSRKLSCAASGFTFSSFGMHWVRQAPEKGLEWVAYISSGSSTFYYADTVKGRFTISRDNPKNTLFLQMTSLRSEDTAMYYCAKELTGTFAYWGQGTLVTVSA
VL: DIVLTQSPATLSVTPGDSVSLSCRASQSINNNLHWYQQKSHESPRLLIKYASQSISGIPSRFSGSGSGTDFTLSINSVETEDFGMYFCQQSNSWPQVTFGAGTKLELKR
notes: Murine monoclonal purified from hybridoma supernatant; Capture antibody of the shed antigen ELISA; also called murine FR1-9
Take B3: the Kd in test [2] lay within 2 to 4 nM.
